What was measured:
[1] = biological target: T1, murine CD22 protein (ACROBiosystems, SI2-M52Ha) (murine, UniProt P35329 22-708); test: ELISA, coated murine CD22, 0.001 nM Ab
T1 construct: extracellular domain; also called murine CD22-ECD; murine CD22-ECD-His
T1 sequence (looked up): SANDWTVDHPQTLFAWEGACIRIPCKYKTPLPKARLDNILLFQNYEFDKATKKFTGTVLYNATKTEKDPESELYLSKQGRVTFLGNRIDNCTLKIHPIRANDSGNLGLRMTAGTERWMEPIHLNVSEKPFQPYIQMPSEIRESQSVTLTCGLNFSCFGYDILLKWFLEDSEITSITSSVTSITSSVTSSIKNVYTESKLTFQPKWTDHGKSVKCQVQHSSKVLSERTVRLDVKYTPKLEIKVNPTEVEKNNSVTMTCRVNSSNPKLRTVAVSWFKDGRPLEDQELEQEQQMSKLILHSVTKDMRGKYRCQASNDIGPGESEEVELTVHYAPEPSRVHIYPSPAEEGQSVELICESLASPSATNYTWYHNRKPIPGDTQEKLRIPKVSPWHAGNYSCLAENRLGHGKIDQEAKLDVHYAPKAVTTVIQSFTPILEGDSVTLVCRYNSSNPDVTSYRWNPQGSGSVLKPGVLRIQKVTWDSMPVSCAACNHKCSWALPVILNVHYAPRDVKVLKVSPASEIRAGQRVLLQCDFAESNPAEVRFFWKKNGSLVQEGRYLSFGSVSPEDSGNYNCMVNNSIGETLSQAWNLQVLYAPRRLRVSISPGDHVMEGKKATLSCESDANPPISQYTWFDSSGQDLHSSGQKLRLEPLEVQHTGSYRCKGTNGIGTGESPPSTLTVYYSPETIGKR
Experimental: (§1) In order to detect the binding activity of CD22 human-murine chimeric antibodies to CD22 protein, the purified human CD22-ECD-His protein obtained in Example 2 was diluted with PBS to a final concentration of 2 μg/mL, and then added to 96-well ELISA plate at 100 μl/well. The plate was sealed with plastic film and incubated overnight at 4° C., the plate was washed 2 times with PBS the next day, and then a blocking solution [PBS+2% (w/w) BSA] was added for blocking at room temperature for 2 hours. […] After incubation at 37° C. for 2 hours, the plate was washed 3 times with PBS. HRP (horseradish peroxidase)-labeled secondary antibody (purchased from Sigma, catalog number: A0170) was added, and incubated at 37° C. for 2 hours, and the plate was washed 5 times with PBS. TMB substrate was added at 50 μl/well, and incubated at room temperature for 30 minutes, then a stop solution (1.0 N HCl) was added at 50 μl/well.
(§2) In order to detect the species cross-binding activity of the chimeric antibodies, an ELISA plate was coated with commercial murine CD22 protein (ACROBiosystems, catalog number: SI2-M52Ha) and monkey CD22 protein (ACROBiosystems, catalog number: SI2-R52Ha), respectively, and the ELISA detection was performed according to the method in Example 5.1.

[2] = biological target: T1, murine CD22 protein (ACROBiosystems, …); test: ELISA, coated murine CD22, 0.01 nM Ab
Experimental: as §1, §2

[3] = biological target: T1, murine CD22 protein (ACROBiosystems, …); test: ELISA, coated murine CD22, 100 nM Ab
Experimental: as §1, §2

[4] = biological target: T1, murine CD22 protein (ACROBiosystems, …); test: ELISA, coated murine CD22, 0.1 nM Ab
Experimental: as §1, §2

[5] = biological target: T1, murine CD22 protein (ACROBiosystems, …); test: ELISA, coated murine CD22, 10 nM Ab
Experimental: as §1, §2

[6] = biological target: T1, murine CD22 protein (ACROBiosystems, …); test: ELISA, coated murine CD22, 0.00001 nM Ab
Experimental: as §1, §2

[7] = biological target: T1, murine CD22 protein (ACROBiosystems, …); test: ELISA, coated murine CD22, 0.0001 nM Ab
Experimental: as §1, §2

[8] = biological target: T2, human CD22, endogenous on Raji cells (human, UniProt P20273 20-847); test: FACS, Raji cells
T2 construct: whole, on cells; Endogenous protein of the Raji cell line
T2 sequence (looked up): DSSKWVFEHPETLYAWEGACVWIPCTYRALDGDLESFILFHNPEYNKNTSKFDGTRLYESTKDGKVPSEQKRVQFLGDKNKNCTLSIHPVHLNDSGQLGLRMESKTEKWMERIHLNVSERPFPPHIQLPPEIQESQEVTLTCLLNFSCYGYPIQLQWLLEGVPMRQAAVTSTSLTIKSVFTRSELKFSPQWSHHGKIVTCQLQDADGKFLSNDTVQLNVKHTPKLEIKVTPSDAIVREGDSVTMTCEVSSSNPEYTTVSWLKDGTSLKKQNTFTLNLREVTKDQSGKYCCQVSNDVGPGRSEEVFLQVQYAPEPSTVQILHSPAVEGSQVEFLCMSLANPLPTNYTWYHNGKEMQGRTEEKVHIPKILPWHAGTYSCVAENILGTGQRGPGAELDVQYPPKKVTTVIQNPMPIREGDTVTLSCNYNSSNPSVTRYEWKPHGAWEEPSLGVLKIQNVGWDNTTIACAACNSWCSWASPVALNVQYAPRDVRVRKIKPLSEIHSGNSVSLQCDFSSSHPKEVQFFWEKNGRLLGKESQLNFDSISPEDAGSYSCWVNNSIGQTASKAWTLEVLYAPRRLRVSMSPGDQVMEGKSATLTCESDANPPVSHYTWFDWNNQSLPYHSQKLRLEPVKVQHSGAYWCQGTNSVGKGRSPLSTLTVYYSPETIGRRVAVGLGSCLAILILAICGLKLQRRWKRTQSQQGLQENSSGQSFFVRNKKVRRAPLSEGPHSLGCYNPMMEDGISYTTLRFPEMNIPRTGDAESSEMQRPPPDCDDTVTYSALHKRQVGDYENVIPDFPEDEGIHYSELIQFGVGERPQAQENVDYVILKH
Excerpt: (§3) The required cells were scale-up cultured in a T-75 cell culture flask to the logarithmic growth phase. For the adherent cell CHO-K1, the medium was aspirated, the cells were washed 2 times with PBS buffer, and then digested with trypsin. After the digestion was terminated, the cells were washed 2 times with PBS buffer. For suspension cell Raji, the medium supernatant was directly centrifuged and discarded, and the cell pellet was washed 2 times with PBS. After counting the cells in the previous step, the cell pellet was resuspended with [PBS+2% (w/w) BSA] blocking solution to 2×10⁶ cells/ml, and added to a 96-well FACS reaction plate at 50 μl/well, and then the chimeric antibody test sample was added at 50 μl/well, and incubated on ice for 2 hours. The mixture was centrifuged and washed 3 times with PBS buffer, Alexa Flour 488-labeled secondary antibody (purchased from Invitrogen, catalog number: A-11013) was added at 50 μl/well, and incubated on ice for 1 hour. The obtained mixture was centrifuged and washed 5 times with PBS, and FACS (FACS Canto™, purchased from BD Company) was used for detection and result analysis. Data analysis was performed by software (CellQuest) to obtain the mean fluorescence density (MFI)of the cells. And then software (GraphPad Prism8) was used for analysis, data fitting, and EC50 value calculation. […] The same method was used to detect the binding of the chimeric antibodies to endogenous CD22-negative cell MoLT4 cells (purchased from ATCC, CRL-1582) and CHO-K1 cells.

[9] = biological target: T3, human CD22, full length, on CHO-K1-human CD22 2C4 cells (human, UniProt P20273 20-847); test: FACS, CHO-K1-human CD22 2C4 cells
T3 construct: Full-length human CD22 (NCBI NP_001762.2) stably transfected into CHO-K1
T3 sequence: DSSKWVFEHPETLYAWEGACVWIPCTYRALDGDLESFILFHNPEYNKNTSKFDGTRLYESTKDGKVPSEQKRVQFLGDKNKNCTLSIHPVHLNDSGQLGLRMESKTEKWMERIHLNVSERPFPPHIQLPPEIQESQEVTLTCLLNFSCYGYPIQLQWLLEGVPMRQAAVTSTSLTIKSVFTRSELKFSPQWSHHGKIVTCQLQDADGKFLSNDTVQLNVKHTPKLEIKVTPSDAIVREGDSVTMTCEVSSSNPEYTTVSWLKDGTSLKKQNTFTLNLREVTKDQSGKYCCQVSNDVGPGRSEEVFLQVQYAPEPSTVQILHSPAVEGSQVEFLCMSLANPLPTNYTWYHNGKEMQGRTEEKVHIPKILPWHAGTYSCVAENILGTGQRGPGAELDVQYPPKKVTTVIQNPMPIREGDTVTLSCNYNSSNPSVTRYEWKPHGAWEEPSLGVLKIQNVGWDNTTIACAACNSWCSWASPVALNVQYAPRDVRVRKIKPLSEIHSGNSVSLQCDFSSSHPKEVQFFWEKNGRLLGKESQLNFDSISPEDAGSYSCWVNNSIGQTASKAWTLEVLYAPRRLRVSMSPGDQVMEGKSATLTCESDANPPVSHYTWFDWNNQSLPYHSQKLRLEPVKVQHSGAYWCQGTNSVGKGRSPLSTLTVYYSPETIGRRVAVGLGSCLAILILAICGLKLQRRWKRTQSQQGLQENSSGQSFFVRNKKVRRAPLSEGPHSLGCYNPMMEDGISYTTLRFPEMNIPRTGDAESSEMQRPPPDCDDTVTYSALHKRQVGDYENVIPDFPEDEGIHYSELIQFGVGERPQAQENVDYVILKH
Excerpt: as §3

Binder | OD450 [1] [OD450] | OD450 [2] [OD450] | OD450 [3] [OD450] | OD450 [4] [OD450] | OD450 [5] [OD450] | OD450 [6] [OD450] | OD450 [7] [OD450] | EC50 [8] [nM] | Maximum mean fluorescence intensity [8] [MFI] | EC50 [9] [nM] | Maximum mean fluorescence intensity [9] [MFI]
m971-hIgG1 (antibody, V domains shown, Positive control anti-human CD22 antibody; V regions from US 8,591,889 B on human IgG1 constant regions) VH: QVQLQQSGPGLVKPSQTLSLTCAISGDSVSSNSAAWNWIRQSPSRGLEWLGRTYYRSKWYNDYAVSVKSRITINPDTSKNQFSLQLNSVTPEDTAVYYCAREVTGDLEDAFDIWGQGTMVTVSS VL: DIQMTQSPSSLSASVGDRVTITCRASQTIWSYLNWYQQRPGKAPNLLIYAASSLQSGVPSRFSGRGSGTDFTLTISSLQAEDFATYYCQQSYSIPQTFGQGTKLEIKR | 0.06 | 0.07 | 0.11 | 0.07 | 0.08 | 0.07 | 0.07 | – | – | – | –
F1.231.15 human-murine chimeric antibody (antibody, human IgG1, V domains shown, Chimeric: murine V regions on human IgG1 heavy constant region and kappa light constant region) VH: QVQLQQPGAELVKPGASVKLSCKTSGYTFTIYWMQWVKQRPGRGLEWIGRIDPHSGDTHYNENFTTKVTLTVDETSNTAYMHLSGLTSEDSAVYYCARRDYSYYVLDYWGQGTSVTVSS VL: DVVLTQTPLSLPVSLGDQASISCRSSQSLVHINGDTYLHWYLQKPGQSPKLLIYTVFNRFSGVPDRFSGSGSGTDFTLKISRVEAEDLGAYFCSQSTHVPYTFGGGTKLEIKR | 0.05 | 0.05 | 0.06 | 0.05 | 0.06 | 0.06 | 0.05 | 0.45 | 28800 | 1.18 | 35400
F1.105.11 human-murine chimeric antibody (antibody, human IgG1, kappa, V domains shown, Chimeric, human IgG1 / kappa; VL tied by name) VH: EVQLQQSGPVLVKPGASVKMSCKASGYTFSDYFMNWVKQSHGKSLEWIGIINSYSGGTSYNQKFKGKATLTVDKSSSTAYMELNSLTSEDSAVYYCARWMDYWGQGTSVTVSS VL: DVQITQSPSYLAASPGETITINCRTSESISKHLAWYQEKPGKTNKLLIYSGSTLQSGIPSRFSGSGSGTDFTLTISSLEPEDFAMYYCQQHNEYPWTFGGGTKLEIKR | 0.05 | 0.05 | 0.08 | 0.05 | 0.05 | 0.05 | 0.05 | 1.39 | 24400 | 2.53 | 28300
F1.267.9 human-murine chimeric antibody (antibody, human IgG1, kappa, V domains shown, Chimeric, human IgG1 / kappa; VL tied by name) VH: EVQLQQSGPVLVKPGASVKMSCKASGYTFTDFYMNWAKQSHGKSLEWVGVINPYNGGINYNQKFKGKATLTVDKSSSTAYMEFNSLTSEDSAVYYCARRMEYHAMDYWGQGTSVTVSS VL: DIVLTQSPASLAVSLGQRATISCRASESVDNYGFDFIHWYQQKPGQPPKLLIYRASNLESGIPARFSGSGSRPDFTLTINPVETDDVATYYCQQSIKDPWTFGGGTKLEIKR | 0.07 | 0.06 | 0.07 | 0.06 | 0.08 | 0.07 | 0.07 | 1.66 | 26700 | 2.08 | 31200
F1.7.6 human-murine chimeric antibody (antibody, human IgG1, kappa, V domains shown, Chimeric, human IgG1 / kappa; VL tied by name) VH: EIQLQQSGPELVKPGTSVKVSCKASGYDFTRYNMYWVKQSHGKSLEWIGYIDPYNGDTRYNQKFKGKATLTVDKSSSTAYMHLNSLTSEDSAVYYCEAIYYDMEGYALDYWGQGTSVTVSS VL: DIVMSQSPSSLAVSVGEKVTMSCKSSQSLLYSNNQKNYLAWYQQKPGQSPKKLIYWASTRESGVPDRLTGSGSGTDFTLTISSVTAEDLAVYYCQQFYSYPWTFGGGTKLEIKR | 0.06 | 0.06 | 0.07 | 0.06 | 0.06 | 0.06 | 0.06 | 0.23 | 25900 | 0.63 | 29700
F1.224.1 human-murine chimeric antibody (antibody, human IgG1, kappa, V domains shown, Chimeric, human IgG1 / kappa; VL tied by name) VH: EVLLHQSGPELVKPGASVKISCKASGYTFTDFNMDWVRQRHGQSLEWIGDVNPNNGGTIYNQKFKGKATLTVDKSSSTVYMDLRSLTSDDTAVYYCVRLGTSDYGEAWFISWGQGTVVTVSA VL: DIVLTQSPASLAVSLGQRATISCRASQSVSTPRYSFMHWYQQKPGQPPKLLIKYASNLESGFPARFTGSGSGTDFTLNIHPVEEEDTAAYYCQQSWAIPWTFGGGTKLEIKR | 0.05 | 0.06 | 0.07 | 0.05 | 0.1 | 0.06 | 0.05 | 0.65 | 23600 | 0.99 | 30400

Reference: patent publication US20240084003A1 (SIMCERE ZAIMING PHARMACEUTICAL, published 2024)
